Experimental findings from paper PMC12698191 (Molecular cell, 2025) are described below.

B1: purified human PSA (shorter isoform) (enzyme, UniProt P55786-1 45-919, looked up)
chain: MPEKRPFERLPADVSPINYSLCLKPDLLDFTFEGKLEAAAQVRQATNQIVMNCADIDIITASYAPEGDEEIHATGFNYQNEDEKVTLSFPSTLQTGTGTLKIDFVGELNDKMKGFYRSKYTTPSGEVRYAAVTQFEATDARRAFPCWDEPAIKATFDISLVVPKDRVALSNMNVIDRKPYPDDENLVEVKFARTPVMSTYLVAFVVGEYDFVETRSKDGVCVRVYTPVGKAEQGKFALEVAAKTLPFYKDYFNVPYPLPKIDLIAIADFAAGAMENWGLVTYRETALLIDPKNSCSSSRQWVALVVGHELAHQWFGNLVTMEWWTHLWLNEGFASWIEYLCVDHCFPEYDIWTQFVSADYTRAQELDALDNSHPIEVSVGHPSEVDEIFDAISYSKGASVIRMLHDYIGDKDFKKGMNMYLTKFQQKNAATEDLWESLENASGKPIAAVMNTWTKQMGFPLIYVEAEQVEDDRLLRLSQKKFCAGGSYVGEDCPQWMVPITISTSEDPNQAKLKILMDKPEMNVVLKNVKPDQWVKLNLGTVGFYRTQYSSAMLESLLPGIRDLSLPPVDRLGLQNDLFSLARAGIISTVEVLKVMEAFVNEPNYTVWSDLSCNLGILSTLLSHTDFYEEIQEFVKDVFSPIGERLGWDPKPGEGHLDALLRGLVLGKLGKAGHKATLEEARRRFKDHVEGKQILSADLRSPVYLTVLKHGDGTTLDIMLKLHKQADMQEEKNRIERVLGATLLPDLIQKVLTFALSEEVRPQDTVSVIGGVAGGSKHGRKAAWKFIKDNWEELYNRYQGGFLISRLIKLSVEGFAVDKMAGEVKAFFESHPAPSAERTIQQCCENILLNAAWLKRDAESIHQYLLQRKASPPTV
B2: purified human SWELL1 (homo-hexamer) (natural protein)
chain: MIPVTELRYFADTQPAYRILKPWWDVFTDYISIVMLMIAVFGGTLQVTQDKMICLPCKWVTKDSCNDSFRGWAAPGPEPTYPNSTILPTPDTGPTGIKYDLDRHQYNYVDAVCYENRLHWFAKYFPYLVLLHTLIFLACSNFWFKFPRTSSKLEHFVSILLKCFDSPWTTRALSETVVEESDPKPAFSKMNGSMDKKSSTVSEDVEATVPMLQRTKSRIEQGIVDRSETGVLDKKEGEQAKALFEKVKKFRTHVEEGDIVYRLYMRQTIIKVIKFILIICYTVYYVHNIKFDVDCTVDIESLTGYRTYRCAHPLATLFKILASFYISLVIFYGLICMYTLWWMLRRSLKKYSFESIREESSYSDIPDVKNDFAFMLHLIDQYDPLYSKRFAVFLSEVSENKLRQLNLNNEWTLDKLRQRLTKNAQDKLELHLFMLSGIPDTVFDLVELEVLKLELIPDVTIPPSIAQLTGLKELWLYHTAAKIEAPALAFLRENLRALHIKFTDIKEIPLWIYSLKTLEELHLTGNLSAENNRYIVIDGLRELKRLKVLRLKSNLSKLPQVVTDVGVHLQKLSINNEGTKLIVLNSLKKMANLTELELIRCDLERIPHSIFSLHNLQEIDLKDNNLKTIEEIISFQHLHRLTCLKLWYNHIAYIPIQIGNLTNLERLYLNRNKIEKIPTQLFYCRKLRYLDLSHNNLTFLPADIGLLQNLQNLAITANRIETLPPELFQCRKLRALHLGNNVLQSLPSRVGELTNLTQIELRGNRLECLPVELGECPLLKRSGLVVEEDLFNTLPPEVKERLWRADKEQA

What all share (assay): cryo-EM structure
The target of data set [1] is B2.
For data set [2], the target named is B1.
The data set “cryo-EM structure” deals with the molecule itself.

B1: the “stoichiometry N” value in data set [1] was 3 PSA molecules per SWELL1 hexamer.
As for B2, in data set [2], the binding result was “binds”. The “stoichiometry N” value in the data set “cryo-EM structure” turned out to be 6.

By stoichiometry N is commonly meant a count of units in the complex or per binding partner.
